T1: human VEGFA121 (human, UniProt P15692-9 27-147, biotinylated)
T1 construct: Biotinylated; also called hVEGFA121; hVEGFA121-biotin
T1 sequence (looked up): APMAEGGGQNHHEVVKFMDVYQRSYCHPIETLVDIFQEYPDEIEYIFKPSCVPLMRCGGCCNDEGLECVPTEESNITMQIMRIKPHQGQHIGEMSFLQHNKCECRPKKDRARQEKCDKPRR


What was measured:
[1] = molecular target: T2, human transferrin (Sigma T3309) (human, UniProt P02787 20-698); experiment: flow cytometry on HEK293F-hTfR1 cells with human transferrin, pH 7.4; grade by % binding (+++ ≥ 15%)
T2 construct: mature; same polypeptide; also called native human transferrin; hTf
Method: (§1) HEK293F-hTfR1 cells were prepared by transfecting hTfR1-expressing plasmid, with a GFP tag, into HEK293F cells. Stable pool was used for this assay. Briefly, the engineered HEK293F cells expressing hTfR1 were cultured with OPM-293 CD05 medium at 37° C., with 8% CO₂ and saturated humidity in cell shaker. […] The cells were washed twice by centrifugation at 300 g for 5 min at 4° C., before rabbit anti-OVA antibodies and a secondary anti-rabbit IgG-AF647 (all prepared in blocking buffer). The cells were scanned with CytoFLEX (Beckman).

[2] = molecular target: T3, human transferrin receptor 1 on HEK293F-hTfR1 cells (human, UniProt P02786 1-760); experiment: flow cytometry on HEK293F-hTfR1 cells with or without transferrin
T3 construct: whole, on cells
Method: as §1

[3] = molecular target: T2, human transferrin (Sigma T3309); experiment: flow cytometry on HEK293F-hTfR1 cells with human transferrin, pH 6.0; grade by % binding (+++ ≥ 15%)
Method: as §1

human VEGFA121 = molecular target: T1, human VEGFA121; experiment: target-binding ELISA on hVEGFA121, humanized VHH-Fc
Method: For binding ELISA, immunoplates were coated with 100 μl/well 1 μg/ml streptavidin and incubate at 4° C. overnight. Wells were washed with PBST for 3 times and blocked with 200 μl of 1% BSA/PBS at RT for 1 hr. Washed with PBST for 3 times and add hVEGFA121-biotin or mVEGFA120-biotin (0.1 μg/ml) 100 al/well and incubated at RT for 1 hr. Plates were washed with PBST for 3 times, 100 al/well 5-fold serially diluted VHH-Fcs from 2 μg/ml was added. and incubate at RT for 1 hr. Plates were washed with PBST for 3 times and add 100 al goat anti-human Fc-HRP (Sigma, A0170) diluted 1/5000 in 1% BSA/PBST to each well and incubate at RT for 1 hr. Plates were then washed as before and add 100 al TMB substrate and incubate at RT for 15 min. 100 al per well stop solution was added to stop the reaction, and the plates were read with microplate reader at 450 nm.
Four VHHs (C2, C8, F6, D2) were selected for humanization. Proceed with plasmid construction and protein production as above, the humanized VHH-Fc was characterized with target-binding (ELISA) and RBA.

[4] = molecular target: T2, human transferrin (Sigma T3309); experiment: flow cytometry on HEK293F-hTfR1 cells with human transferrin, pH 7.4; grade by % binding (10% > + ≥ 5%)
Method: as §1

T2 sequence (P02787 20-698): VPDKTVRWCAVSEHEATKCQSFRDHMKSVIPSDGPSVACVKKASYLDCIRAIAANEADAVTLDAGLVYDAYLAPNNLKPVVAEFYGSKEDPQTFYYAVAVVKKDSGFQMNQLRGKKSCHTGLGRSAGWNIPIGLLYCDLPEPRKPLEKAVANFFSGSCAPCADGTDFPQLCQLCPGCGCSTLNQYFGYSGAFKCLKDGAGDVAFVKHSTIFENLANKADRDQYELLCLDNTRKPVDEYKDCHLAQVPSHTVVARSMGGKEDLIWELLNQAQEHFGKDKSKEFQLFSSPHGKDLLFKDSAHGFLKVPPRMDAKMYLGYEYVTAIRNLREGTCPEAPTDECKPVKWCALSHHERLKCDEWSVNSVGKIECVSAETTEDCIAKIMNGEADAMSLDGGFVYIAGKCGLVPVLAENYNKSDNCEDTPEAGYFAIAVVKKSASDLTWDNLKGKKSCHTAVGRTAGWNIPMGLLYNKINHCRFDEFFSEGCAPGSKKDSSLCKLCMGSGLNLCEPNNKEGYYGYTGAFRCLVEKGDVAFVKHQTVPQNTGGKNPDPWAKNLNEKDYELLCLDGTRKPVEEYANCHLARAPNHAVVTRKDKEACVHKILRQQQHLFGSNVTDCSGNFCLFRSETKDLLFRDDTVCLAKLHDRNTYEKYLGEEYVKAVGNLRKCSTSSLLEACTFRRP
T3 sequence (P02786 whole entry): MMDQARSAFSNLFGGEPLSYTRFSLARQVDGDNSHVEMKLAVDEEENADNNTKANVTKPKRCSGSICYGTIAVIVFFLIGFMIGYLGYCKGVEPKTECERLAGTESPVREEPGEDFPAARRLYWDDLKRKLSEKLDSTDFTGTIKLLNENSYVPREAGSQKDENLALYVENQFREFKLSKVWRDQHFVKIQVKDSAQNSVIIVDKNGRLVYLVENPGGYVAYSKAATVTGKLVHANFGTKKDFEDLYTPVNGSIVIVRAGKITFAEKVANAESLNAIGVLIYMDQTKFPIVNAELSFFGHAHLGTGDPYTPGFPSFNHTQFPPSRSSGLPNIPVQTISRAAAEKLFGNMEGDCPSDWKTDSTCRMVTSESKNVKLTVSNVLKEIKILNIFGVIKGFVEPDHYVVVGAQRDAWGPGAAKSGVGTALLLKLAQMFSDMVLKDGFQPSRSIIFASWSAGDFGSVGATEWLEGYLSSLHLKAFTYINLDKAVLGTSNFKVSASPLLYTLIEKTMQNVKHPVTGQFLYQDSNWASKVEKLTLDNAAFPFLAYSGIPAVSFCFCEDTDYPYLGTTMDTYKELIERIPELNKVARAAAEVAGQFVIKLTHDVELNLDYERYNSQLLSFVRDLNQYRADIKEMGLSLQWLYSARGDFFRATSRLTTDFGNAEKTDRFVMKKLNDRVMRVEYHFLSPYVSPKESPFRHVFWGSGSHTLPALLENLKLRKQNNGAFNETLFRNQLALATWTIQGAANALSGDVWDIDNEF

Row | percent binding (flow cytometry, VHH/Tf on hTfR1-overexpressing cells, pH 7.4) [1] | binding result [2] | percent binding (flow cytometry, VHH/Tf on hTfR1-overexpressing cells, pH 6.0) [3] | binding result (human VEGFA121) | percent binding (flow cytometry, VHH/Tf on hTfR1-overexpressing cells, pH 7.4) [4] | Binder
1 | ≥ 15% | no binding (tested: 10 µg/mL) | ≥ 15% | – | – | SLN0056 VHH-OVA-His (VHH, Tested as recombinant VHH-OVA-His; not shown: His tag) EVQLVESGGGSVQAGGSLRLSCRASGHAYGGNYMGWFRQAPGKEREGVAVLYTGGGSTYYADSVKGRFTISEDNAKNTVYLQMDSLKLEDTAMYYCALALGSARWYTSSLDARAYNIWGQGTQVTVSSGSIGAASMEFCFDVFKELKVHHANENIFYCPIAIMSALAMVYLGAKDSTRTQINKVVRFDKLPGFGDSIEAQCGTSVNVHSSLRDILNQITKPNDVYSFSLASRLYAEERYPILPEYLQCVKELYRGGLEPINFQTAADQARELINSWVESQTNGIIRNVLQPSSVDSQTAMVLVNAIVFKGLWEKAFKDEDTQAMPFRVTEQESKPVQMMYQIGLFRVASMASEKMKILELPFASGTMSMLVLLPDEVSGLEQLESIINFEKLTEWTSSNVMEERKIKVYLPRMKMEEKYNLTSVLMAMGITDVFSSSANLSGISSAESLKISQAVHAAHAEINEAGREVVGSAEAGVDAASVSEEFRADHPFLFCIKHIATNAVLFFGRCVSP
2 | – | – | – | binds | – | SLN6062 humanized VHH-Fc (Fc fusion, tested as VHH-Fc; also called C8-9; not shown: human IgG4 Fc (VHH-hIgG4 Fc fusion)) EVQLVESGGGLVQPGGSLRLSCAASVYTASCMGWFRQAPGKGLELVSTLNRNSGRTSYVGSVKGRFTISQDNSKKTLYLQMNSLRAEDTAVYYCAATWSWYSFTCPGDQNAYIHWGQGTLVTVSS
3 | – | no binding (tested: 10 µg/mL) | – | – | 5 to 10% | SLN0065 VHH-OVA-His (VHH, Tested as recombinant VHH-OVA-His; not shown: His tag) EVQLVESGGGSVQAGGSLRLSCLYTDSLFWMGWFRQTPGNEREGVAVTGRDGSTIYADSVQGRFTISRDNAKNTLYLQMNSLKPDDTAMYYCAADQTRYSSLRLLAPNRSASWGQGTQVTVSSGSIGAASMEFCFDVFKELKVHHANENIFYCPIAIMSALAMVYLGAKDSTRTQINKVVRFDKLPGFGDSIEAQCGTSVNVHSSLRDILNQITKPNDVYSFSLASRLYAEERYPILPEYLQCVKELYRGGLEPINFQTAADQARELINSWVESQTNGIIRNVLQPSSVDSQTAMVLVNAIVFKGLWEKAFKDEDTQAMPFRVTEQESKPVQMMYQIGLFRVASMASEKMKILELPFASGTMSMLVLLPDEVSGLEQLESIINFEKLTEWTSSNVMEERKIKVYLPRMKMEEKYNLTSVLMAMGITDVFSSSANLSGISSAESLKISQAVHAAHAEINEAGREVVGSAEAGVDAASVSEEFRADHPFLFCIKHIATNAVLFFGRCVSP
4 | – | – | – | binds | – | SLN-6068 humanized VHH-Fc (Fc fusion, tested as VHH-Fc; also called C2-11; not shown: human IgG4 Fc (VHH-hIgG4 Fc fusion)) EVQLVESGGGLVQPGGSLRLSCAASVYTSSTYYMAWFRQAPGKGREGVAAAYAGGGGTVYADSVKGRFTISQDNSKNTLYLQMNSLRAEDTAVYYCAARMSRLLGMAPLLPEHYDSWGQGTLVTVSS
5 | – | no binding (tested: 10 µg/mL) | ≥ 15% | – | – | SLN0044 VHH-OVA-His (VHH, Tested as recombinant VHH-OVA-His; not shown: His tag) DVQLVESGGGSVQAGGSLRLSCAASIYTYSTACMAWFRQAPGKEREGVAAIARYGDTTYTDSVKGRFTISRDVAKNILYLQMSSLKPEDTAMYYCASKSPNSGCDEYAHYETFGQGTQVTVSSGSIGAASMEFCFDVFKELKVHHANENIFYCPIAIMSALAMVYLGAKDSTRTQINKVVRFDKLPGFGDSIEAQCGTSVNVHSSLRDILNQITKPNDVYSFSLASRLYAEERYPILPEYLQCVKELYRGGLEPINFQTAADQARELINSWVESQTNGIIRNVLQPSSVDSQTAMVLVNAIVFKGLWEKAFKDEDTQAMPFRVTEQESKPVQMMYQIGLFRVASMASEKMKILELPFASGTMSMLVLLPDEVSGLEQLESIINFEKLTEWTSSNVMEERKIKVYLPRMKMEEKYNLTSVLMAMGITDVFSSSANLSGISSAESLKISQAVHAAHAEINEAGREVVGSAEAGVDAASVSEEFRADHPFLFCIKHIATNAVLFFGRCVSP
6 | ≥ 15% | no binding (tested: 10 µg/mL) | ≥ 15% | – | – | SLN0072 VHH-OVA-His (VHH, Tested as recombinant VHH-OVA-His; not shown: His tag) EVQLVESGGGSVQAGGSLRLSCVASGYTGSSSYMGWFRQVPGKEREGVAQINSRSGSTYYADSVKGRFTISQDNAKNTVYLQMTSLKPEDTGMYYCAERFGPTFYPVPLGSNLYNYWGQGTQVTVSSGSIGAASMEFCFDVFKELKVHHANENIFYCPIAIMSALAMVYLGAKDSTRTQINKVVRFDKLPGFGDSIEAQCGTSVNVHSSLRDILNQITKPNDVYSFSLASRLYAEERYPILPEYLQCVKELYRGGLEPINFQTAADQARELINSWVESQTNGIIRNVLQPSSVDSQTAMVLVNAIVFKGLWEKAFKDEDTQAMPFRVTEQESKPVQMMYQIGLFRVASMASEKMKILELPFASGTMSMLVLLPDEVSGLEQLESIINFEKLTEWTSSNVMEERKIKVYLPRMKMEEKYNLTSVLMAMGITDVFSSSANLSGISSAESLKISQAVHAAHAEINEAGREVVGSAEAGVDAASVSEEFRADHPFLFCIKHIATNAVLFFGRCVSP
7 | – | – | – | binds | – | SLN-6043 humanized VHH-Fc (Fc fusion, tested as VHH-Fc; also called F6-1; not shown: human IgG4 Fc (VHH-hIgG4 Fc fusion)) EVQLVESGGGVVQPGGSLRLSCAASGFTSDNCAVHWVRQAPGKGLEWVSSISSDDSTRYADSVKGRFTISRDNSKNSLYLQMNSLRTEDTALYYCQTKWPCTYRRGGSAYRPAVVWGQGTLVTVSS
8 | ≥ 15% | no binding (tested: 10 µg/mL) | ≥ 15% | – | – | SLN0049 VHH-OVA-His (VHH, Tested as recombinant VHH-OVA-His; not shown: His tag) EVQLVESGGGSVQAGGSLRLSCAASRATNSRYSMGWFRQAPGKEREGVAAIDSIGRTSYADSVKGRFTISQDGAKNTLYLQMNSLKPEDTAMYYCAATAWRDWATLREYEYGYWGQGTQVTVSSGSIGAASMEFCFDVFKELKVHHANENIFYCPIAIMSALAMVYLGAKDSTRTQINKVVRFDKLPGFGDSIEAQCGTSVNVHSSLRDILNQITKPNDVYSFSLASRLYAEERYPILPEYLQCVKELYRGGLEPINFQTAADQARELINSWVESQTNGIIRNVLQPSSVDSQTAMVLVNAIVFKGLWEKAFKDEDTQAMPFRVTEQESKPVQMMYQIGLFRVASMASEKMKILELPFASGTMSMLVLLPDEVSGLEQLESIINFEKLTEWTSSNVMEERKIKVYLPRMKMEEKYNLTSVLMAMGITDVFSSSANLSGISSAESLKISQAVHAAHAEINEAGREVVGSAEAGVDAASVSEEFRADHPFLFCIKHIATNAVLFFGRCVSP
9 | – | – | – | binds | – | SLN6065 humanized VHH-Fc (Fc fusion, tested as VHH-Fc; also called D2-9; not shown: human IgG4 Fc (VHH-hIgG4 Fc fusion)) EVQLVESGGGLVQPGGSLRLSCAASRDAYFNNYMAWFRQAPGKGLEGVSSIATNTGNDYYADSVKGRFTISRDNSKNTIYLQMNSLRAEDTAVYYCAAGWRGGSFWTPSKYSYWGQGTLVTVSS
10 | – | no binding (tested: 10 µg/mL) | – | – | 5 to 10% | SLN0071 VHH-OVA-His (VHH, Tested as recombinant VHH-OVA-His; not shown: His tag) EVQLVESGGGSVQAGGSLRLSCAGSEYTYSRCCMGWFRQAPGKEREGVVSINVLGGTSYADSVKGRFTISRDNAENTLYLQMNSLKPEDTAMYYCAAGLASAPWRPCGTTTEEYKYWGQGTQVTVSSGSIGAASMEFCFDVFKELKVHHANENIFYCPIAIMSALAMVYLGAKDSTRTQINKVVRFDKLPGFGDSIEAQCGTSVNVHSSLRDILNQITKPNDVYSFSLASRLYAEERYPILPEYLQCVKELYRGGLEPINFQTAADQARELINSWVESQTNGIIRNVLQPSSVDSQTAMVLVNAIVFKGLWEKAFKDEDTQAMPFRVTEQESKPVQMMYQIGLFRVASMASEKMKILELPFASGTMSMLVLLPDEVSGLEQLESIINFEKLTEWTSSNVMEERKIKVYLPRMKMEEKYNLTSVLMAMGITDVFSSSANLSGISSAESLKISQAVHAAHAEINEAGREVVGSAEAGVDAASVSEEFRADHPFLFCIKHIATNAVLFFGRCVSP

— patent publication US20250034239A1 (LINNO PHARMACEUTICALS, published 2025)
